# B1: ONC-scFvEGFR (onconase (ONC) fused to a single-chain antibody fragment (scFv) against EGFR) (scFv)
# chain: QDWLTFQKKHITNTRDVDCDNIMSTNLFHCKDKNTFIYSRPEPVKAICKGIIASKNVLTTSEFYLSDCNVTSRPCKYKLKKSTNKFCVTCENQAPVHFVGVGSCGGGGSGGGGSGGGGSEVQLVESGGGLVQPGGSLRLSCAASGFSLTNYGVHWVRQAPGKGLEWLGVIWSGGNTDYNTPFTSRFTISRDNSKNTLYLQMNSLRAEDTAVYYCARALTYYDYEFAYWGQGTTVTVSSGGGGSGGGGSGGGGSDIQLTQSPSFLSASVGDRVTITCRASQSIGTNIHWYQQKPGKAPKLLIKYASESISGVPSRFSGSGSGTEFTLTISSLQPEDFATYYCQQNNNWPTTFGAGTKLEIKRAAAEQKLISEEDLNGAAHHHHHH
# notes: also called immunoRNase; fusion polypeptide
# Target: T1, EGFR on the surface of A431 cells (human, UniProt P00533 25-1210)
# T1 construct: whole, on cells; also called cell surface EGFR
# Test: flow cytometry on A431 cells with cetuximab or rituximab pre-incubation
binder,measurement,value
B1,binding result,binds

# Source: patent WO2014041119A1 (dated 2014)
